Molecular target: the molecule itself
Assay: native gel or EMSA

B1: NEUROG3^S183A (natural protein, human, UniProt Q9Y4Z2 1-214, looked up)
chain: MTPQPSGAPTVQVTRETERSFPRASEDEVTCPTSAPPSPTRTRGNCAEAEEGGCRGAPRKLRARRGGRSRPKSELALSKQRRSRRKKANDRERNRMHNLNSALDALRGVLPTFPDDAKLTKIETLRFAHNYIWALTQTLRIADHSLYALEPPAPHCGELGSPGGSPGDWGSLYSPVSQAGSLAPAASLEERPGLLGATFSACLSPGSLAFSDFL
binding result: binds

From PMC7082840 (Developmental cell, 2019)
